First the molecules themselves.
B1: P01023 (protein)
chain: MGKNKLLHPSLVLLLLVLLPTDASVSGKPQYMVLVPSLLHTETTEKGCVLLSYLNETVTVSASLESVRGNRSLFTDLEAENDVLHCVAFAVPKSSSNEEVMFLTVQVKGPTQEFKKRTTVMVKNEDSLVFVQTDKSIYKPGQTVKFRVVSMDENFHPLNELIPLVYIQDPKGNRIAQWQSFQLEGGLKQFSFPLSSEPFQGSYKVVVQKKSGGRTEHPFTVEEFVLPKFEVQVTVPKIITILEEEMNVSVCGLYTYGKPVPGHVTVSICRKYSDASDCHGEDSQAFCEKFSGQLNSHGCFYQQVKTKVFQLKRKEYEMKLHTEAQIQEEGTVVELTGRQSSEITRTITKLSFVKVDSHFRQGIPFFGQVRLVDGKGVPIPNKVIFIRGNEANYYSNATTDEHGLVQFSINTTNVMGTSLTVRVNYKDRSPCYGYQWVSEEHEEAHHTAYLVFSPSKSFVHLEPMSHELPCGHTQTVQAHYILNGGTLLGLKKLSFYYLIM
B2: C9JU00 (protein)
chain: MIDAATLKSRKMLEEIMKYEASILTHDSSIRYLQEIYNSNNQKIVNLKEKVAQLEAQCQEPCKDTVQIHDITGKDCQDIANKGAKQSGLYFIKPLKANQQFLVYCEIDGSGNGWTVFQKRLDG
B3: P02538 (protein)
chain: MASTSTTIRSHSSSRRGFSANSARLPGVSRSGFSSVSVSRSRGSGGLGGACGGAGFGSRSLYGLGGSKRISIGGGSCAISGGYGSRAGGSYGFGGAGSGFGFGGGAGIGFGLGGGAGLAGGFGGPGFPVCPPGGIQEVTVNQSLLTPLNLQIDPTIQRVRAEEREQIKTLNNKFASFIDKVRFLEQQNKVLETKWTLLQEQGTKTVRQNLEPLFEQYINNLRRQLDSIVGERGRLDSELRGMQDLVEDFKNKYEDEINKRTAAENEFVTLKKDVDAAYMNKVELQAKADTLTDEINFLRALYDAELSQMQTHISDTSVVLSMDNNRNLDLDSIIAEVKAQYEEIAQRSRAEAESWYQTKYEELQVTAGRHGDDLRNTKQEIAEINRMIQRLRSEIDHVKKQCANLQAAIADAEQRGEMALKDAKNKLEGLEDALQKAKQDLARLLKEYQELMNVKLALDVEIATYRKLLEGEECRLNGEGVGQVNISVVQSTVSSGYGGA
B4: F5GXS0 (protein)
chain: MRLLWGLIWASSFFTLSLQKPRLLLFSPSVVHLGVPLSVGVQLQDVPRGQVVKGSVFLRNPSRNNVPCSPKVDFTLSSERDFALLSLQVPLKDAKSCGLHQLLRGPEVQLVAHSPWLKDSLSRTTNIQGINLLFSSRRGHLFLQTDQPIYNPGQRVRYRVFALDQKMRPSTDTITVMVENSHGLRVRKKEVYMPSSIFQDDFVIPDISEPGTWKISARFSDGLESNSSTQFEVKKYVLPNFEVKITPGKPYILTVPGHLDEMQLDIQARYIYGKPVQGVAYVRFGLLDEDGKKTFFRGLESQTKLVNGQSHISLSKAEFQDALEKLNMGITDLQGLRLYVAAAIIESPGGEMEEAELTSWYFVSSPFSLDLSKTKRHLVPGAPFLLQALVREMSGSPASGIPVKVSATVSSPGSVPEVQDIQQNTDGSGQVSIPIIIPQTISELQLSVSAGSPHPAIARLTVAAPPSGGPGFLSIERPDSRPPRVGDTLNLNLRAVGSGA
B5: A0A140TA32 (protein)
chain: B4 chain with S347Y
B6: P13647 (protein, UniProt P13647 1-590, looked up)
chain: MSRQSSVSFRSGGSRSFSTASAITPSVSRTSFTSVSRSGGGGGGGFGRVSLAGACGVGGYGSRSLYNLGGSKRISISTSGGSFRNRFGAGAGGGYGFGGGAGSGFGFGGGAGGGFGLGGGAGFGGGFGGPGFPVCPPGGIQEVTVNQSLLTPLNLQIDPSIQRVRTEEREQIKTLNNKFASFIDKVRFLEQQNKVLDTKWTLLQEQGTKTVRQNLEPLFEQYINNLRRQLDSIVGERGRLDSELRNMQDLVEDFKNKYEDEINKRTTAENEFVMLKKDVDAAYMNKVELEAKVDALMDEINFMKMFFDAELSQMQTHVSDTSVVLSMDNNRNLDLDSIIAEVKAQYEEIANRSRTEAESWYQTKYEELQQTAGRHGDDLRNTKHEISEMNRMIQRLRAEIDNVKKQCANLQNAIADAEQRGELALKDARNKLAELEEALQKAKQDMARLLREYQELMNTKLALDVEIATYRKLLEGEECRLSGEGVGPVNISVVTSSVSSGYGSGSGYGGGLGGGLGGGLGGGLAGGSSGSYYSSSSGGVGLGGGLSVGGSGFSASSGRGLGVGFGSGGGSSSSVKFVSTTSSSRKSFKS
modifications: full-length
B7: P02533 (protein)
chain: MTTCSRQFTSSSSMKGSCGIGGGIGGGSSRISSVLAGGSCRAPSTYGGGLSVSSSRFSSGGACGLGGGYGGGFSSSSSSFGSGFGGGYGGGLGAGLGGGFGGGFAGGDGLLVGSEKVTMQNLNDRLASYLDKVRALEEANADLEVKIRDWYQRQRPAEIKDYSPYFKTIEDLRNKILTATVDNANVLLQIDNARLAADDFRTKYETELNLRMSVEADINGLRRVLDELTLARADLEMQIESLKEELAYLKKNHEEEMNALRGQVGGDVNVEMDAAPGVDLSRILNEMRDQYEKMAEKNRKDAEEWFFTKTEELNREVATNSELVQSGKSEISELRRTMQNLEIELQSQLSMKASLENSLEETKGRYCMQLAQIQEMIGSVEEQLAQLRCEMEQQNQEYKILLDVKTRLEQEIATYRRLLEGEDAHLSSSQFSSGSQSSRDVTSSSRQIRTKVMDVHDGKVVSTHEQVLRTKN
B8: P00488 (protein)
chain: MSETSRTAFGGRRAVPPNNSNAAEDDLPTVELQGVVPRGVNLQEFLNVTSVHLFKERWDTNKVDHHTDKYENNKLIVRRGQSFYVQIDFSRPYDPRRDLFRVEYVIGRYPQENKGTYIPVPIVSELQSGKWGAKIVMREDRSVRLSIQSSPKCIVGKFRMYVAVWTPYGVLRTSRNPETDTYILFNPWCEDDAVYLDNEKEREEYVLNDIGVIFYGEVNDIKTRSWSYGQFEDGILDTCLYVMDRAQMDLSGRGNPIKVSRVGSAMVNAKDDEGVLVGSWDNIYAYGVPPSAWTGSVDILLEYRSSENPVRYGQCWVFAGVFNTFLRCLGIPARIVTNYFSAHDNDANLQMDIFLEEDGNVNSKLTKDSVWNYHCWNEAWMTRPDLPVGFGGWQAVDSTPQENSDGMYRCGPASVQAIKHGHVCFQFDAPFVFAEVNSDLIYITAKKDGTHVVENVDATHIGKLIVTKQIGGDGMMDITDTYKFQEGQEEERLALETALM
B9: E7ESP9 (protein)
chain: MSYTLDSLGNPSAYRRVTETRSSFSRVSGSPSSGFRSQSWSRGSPSTVSSSYKRSMLAPRLAYSSAMLSSAESSLDFSQSSSLLNGGSGPGGDYKLSRSNEKEQLQGLNDRFAGYIEKVHYLEQQNKEIEAEIQALRQKQASHAQLGDAYDQEIRELRATLEMVNHEKAQVQLDSDHLEEDIHRLKERFEEEARLRDDTEAAIRALRKDIEEASLVKVELDKKVQSLQDEVAFLRSNHEEEVADLLAQIQASHITVERKDYLKTDISTALKEIRSQLESHSDQNMHQAEEWFKCRYAKLTEAAEQNKEAIRSAKEEIAEYRRQLQSKSIELESVRGTKESLERQLSDIEERHNHDLSSYQDTIQQLENELRGTKWEMARHLREYQDLLNVKMALDIEIAAYRKLLEGEETRFSTFAGSITGPLYTHRPPITISSKIQKPKVEAPKLKVQHKFVEEIIEETKVEDEKSEMEEALTAITEELAVSMKEEKKEAAEEKEEEPE
B10: Q9Y2J8 (protein)
chain: MLRERTVRLQYGSRVEAVYVLGTYLWTDVYSAAPAGAQTFSLKHSEHVWVEVVRDGEAEEVATNGKQRWLLSPSTTLRVTMSQASTEASSDKVTVNYYDEEGSIPIDQAGLFLTAIEISLDVDADRDGVVEKNNPKKASWTWGPEGQGAILLVNCDRETPWLPKEDCRDEKVYSKEDLKDMSQMILRTKGPDRLPAGYEIVLYISMSDSDKVGVFYVENPFFGQRYIHILGRRKLYHVVKYTGGSAELLFFVEGLCFPDEGFSGLVSIHVSLLEYMAQDIPLTPIFTDTVIFRIAPWIMTPNILPPVSVFVCCMKDNYLFLKEVKNLVEKTNCELKVCFQYLNRGDRWIQDEIEFGYIEAPHKGFPVVLDSPRDGNLKDFPVKELLGPDFGYVTREPLFESVTSLDSFGNLEVSPPVTVNGKTYPLGRILIGSSFPLSGGRRMTKVVRDFLKAQQVQAPVELYSDWLTVGHVDEFMSFVPIPGTKKFLLLMASTSACYKL
B11: K7ERE3 (protein)
chain: MSLRLQSSSASYGGGFGGGSCQLGGGRGVSTCSTRFVSGGSAGGYGGGVSCGFGGGAGSGFGGGYGGGLGGGYGGGLGGGFGGGFAGGFVDFGACDGGLLTGNEKITMQNLNDRLASYLEKVRALEEANADLEVKIRDWHLKQSPASPERDYSPYYKTIEELRDKILTATIENNRVILEIDNARLAADDFRLKYENELALRQSVEADINGLRRVLDELTLSKTDLEMQIESLNEELAYMKKNHEEEMKEFSNQVVGQVNVEMDATPGIDLTRVLAEMREQYEAMAERNRRDAEEWFHTKSAELNKEVSTNTAMIQTSKTEITELRRTLQGLEIELQSQLSMKAGLENTVAETECRYALQLQQIQGLISSIEAQLSELRSEMECQNQEYKMLLDIKTRLEQEIATYRSLLEGQDAK

The values below come from PMC9958131 (Nature Communications, 2023).

Positions count from the first letter of the chain named.

This assay deals with PAD2 and PAD4. Kind of assay: Citrullination site mapping of fibrinogen and vimentin by trypsin digestion and mass spectrometry (protein-level sheet, one search over native, PAD2-cit and PAD4-cit samples). The class given is biochemical, human. Conditions: modified residues found per protein; Deamidated [R..] = deamidated (citrullinated) arginine positions; trypsin digest, Sequest HT; not split by sample (native, PAD2-citrullinated, PAD4-citrullinated fibrinogen and vimentin). The text has this:
Description: Raw mass spectrometry data for proteolytic mapping of fibrinogen, vimentin, and hnRNP A2/B1 by cathepsins B, S, and H (sheets 1-6); citrullination site mapping of fibrinogen and vimentin by trypsin digestion (sheets 7-8); and the natural antigen processing assay with native, PAD2-citrullinated (PAD2-cit), and PAD4-citrullinated (PAD4-cit) fibrinogen (sheets 9-11).
Turning to B1, the Modifications entry is “Deamidated [R645; R704; R715; R719; R1401; R1407]”.
With B2 the entry was “Deamidated [R31]”; with B3, “Deamidated [R182; R222; R326]”.
To B4 belongs “Deamidated [R123; R1126]”; to B5, “Deamidated [R123]”.
To B6 belongs “Deamidated [R37; R73; R187; R227]”; to B7, “Deamidated [R125; R194; R282; R336; R439]; Met-loss+Acetyl [N-Term]”; to B8, “Deamidated [R6; R202; R675; R697]; Met-loss+Acetyl [N-Term]”.
Consider B9, for which the Modifications result is “Deamidated [R382]”.
To B10 belongs “Deamidated [R5; R8; R54; R68; R78; R157; R187; R193; R225; R232; R344; R347; R373; R428; R441; R442; R546; R552; R580; R582; R652; R653]”; to B11, “Deamidated [R27; R212]”.
